# Laboratory results as given in patent publication US6379959B1, “Metalocarboxypeptidase inhibitors and derived molecules used as antitumor agents” (Universitat Autonoma de Barcelona, priority 1996, dated 2002).
# “And” between values parts separate entries of the source, which are not always exact repeats. Equal values may be shown once. Positions of bridges follow the written chain, without caps; N, C: chain ends. No end group written: not given here.
# What was measured:
# [1] = test system: human pancreatic adenocarcinoma cell line Capan-1; settings: 16 days
# Procedure: Two kinds of tests were carried out; the first one is the treatment of cells of the human pancreatic adenocarcinoma cell line Capan-1 with wtPCI and tail added to the culture medium in absence of serum.
# In a culture plate with 96 wells, 5,000 cells were seed per well, in 24 of them. The cells were placed in full medium (DMEM+10%FBS).
# In 6 wells (control): 200 μL of serum-free medium (DMEM-FBS) and free of tail were added.
# 200 μL of serum-free medium with 50 μg/mL of native PCI were added.
# In 6 wells, 200 μL of serum-free medium with 0.128 μg of tail/mL were added.
# In 6 wells, serum-free medium with 6.4 μg of tail/mL was added.
# The medium contained in the wells was changed every 3-4 days. The old medium was sucked out using a Pasteur pipette.
# After 16 days, the cell growth per well was evaluated according to the method detailed in the protocol of Section 4.B.2.a.
# EGF receptor = EGF receptor (Homo sapiens, UniProt P00533); experiment: Kinase activity (phosphorilation) of the EGF receptor, A431 cells; assay type: cell-based; parameters: endogenous in cells; host or cells: A431 (squamous cancer cell line)
# Procedure: The material and protocol used have been those described by Donato, N. J. et al. (1989) J. Cell. Biochem., 41: 139-157.
# 1.c. Wash the cells twice more with tempered PBS and add new serum-free medium. Immediately after, add PCI to the concentration which is going to be studied in the cultures to be treated and incubate for 10 min at 37° C.
# 2.a. […] Incubate for 1 h in ice.
# 3.a. Prepare the reaction buffer. Each sample requires 50μL.
# 3.k. Dry the gel (for at least 3 h) and autoradiograph it for 10 min for the A431 cell line and 2-4 h for the Capan-1 cell line. Count the radiactivity of the filter using a beta counter.
# The kinase activity in absence of PCI (basal) is taken as 100% and the values of kinase activity have been compared in various concentrations of PCI in relation to this basal activity.
# [2] = test system: human pancreatic adenocarcinoma cell line Capan-1; experiment: Cytotoxicity test with BCECF-AM and propydium iodure; assay type: cell-based; settings: PCI 10-75 μg/mL, 24 h
# Description: The cytotoxicity test is based on the use of two fluorophores, BCECF-AM and propydium iodure. The first one is employed to mark the viable cells because it quickly penetrates into the cellular cytoplasm where it is fragmented by the action of the esterases, becoming a fluorescent molecule. These esterases only being active when the cells are alive. Propydium iodine is a derivative of the phenanthrene which specifically joins the polynucleotide structure of nucleic acids intercalating between their pairs of bases. Due to its ionic structure it cannot penetrate into the live cells but it can do so into the dead ones, labeling DNA and RNA. […]
# 1. The absorbancy of the plate was read using cytofluor. The cytofluor is a fluorometer especially designed for reading the fluorescence of the cells; it is controlled by computer which makes it possible to employ various filter combinations of excitation-emission at the same time. […] These filters allow us to detect the fluorescence of the two reagents employed for the cytotoxicity test such as BCECF-AM and propydium iodide. This first reading corresponds to the self-fluorescence of the cells, which it will later be deducted from the final value of the fluorescence. […]
# 3. Afterwards, the absorbancy of the plate was read. This measure corresponds to the total fluorescence.
# 4. […] Thus, we eliminated the fluorescence that had not been incorporated by the cells. […]
substance,measurement,setting,value
"PCI: potato carboxypeptidase inhibitor, isoform IIa, obtained by recombinant DNA techniques in E. coli (SEQ ID NO.2) (EQHADPICNKPCKTHDDCSGAWFCQACWNSARTCGPYVG; disulfide 12-27, 18-34, 8-24)",Growth (Percentage in relation to the average of the controls),"[1]; 50 mg/mL wtPCI, serum-free medium",107.6%
same,growth of Capan-1 cells,[1]; wtPCI in serum-free medium,not altered
same,Kinase activity (%),EGF receptor; 1 ng/ml EGF + 1 mg/mL PCI,126%
same,Kinase activity (%),EGF receptor; 1 ng/ml EGF + 10 mg/mL PCI,108%
same,Kinase activity (%),EGF receptor; 1 ng/ml EGF + 50 mg/mL PCI,53%
same,Kinase activity (%),"EGF receptor; basal, incubation with PCI 1 mg/mL, 10 min, 100% = absence of PCI",68%
same,Kinase activity (%),"EGF receptor; basal, incubation with PCI 50 mg/mL, 10 min, 100% = absence of PCI",78% and 61% and 80% and 77%
same,Kinase activity (%),"EGF receptor; basal, incubation with PCI 100 mg/mL, 10 min, 100% = absence of PCI",29%
same,kinase activity of the receptor under EGF,"EGF receptor; highest dose of PCI, 50 μg/mL, with EGF",reduced to half the basal activity
same,cell death (propydium iodure fluorescence),[2],No significant difference in relation to the control group
same,viability of the cells (BCECF-AM fluorescence),[2],no decrease of viability being observed
